Results on one molecule are retold here after patent publication US20150140013A1 (GENERAL HOSPITAL, published 2015).

For this experiment, the target named is T1, RAPTOR (UniProt Q8N122 1-1335).
T1 construct: Endogenous protein in lysates of human cancer cell lines
As to the kind of experiment: co-immunoprecipitation with anti-FAK from whole-cell lysates of HCT116 and MCF7 cells in mitosis, immunoblot with anti-RAPTOR. The procedure:
The immunoprecipitates were washed and resolved by SDS-PAGE. For western blots: primary antibody: RICTOR, mTOR (Cell Signaling), Raptor, FAK, β1-integrin, TTC3 (AbCam).
Standard protocols were used for SDS-PAGE electrophoresis and the following primary antibodies: α-RICTOR, α-mTOR, Phospho-AKT-Ser473 (D9E; Cell Signaling Technology) and α-RAPTOR, α-FAK, α-β1-integrin, α-TTC3, Pan-AKT, and GAPDH (Abcam). For immunoprecipitation studies, cells were synchronized with 200 ng/mL of nocodazole for 12 hours and then released for 2 hours. Cells were rinsed with PBS, fixed with 0.37% formalde-hyde, and quenched with 0.25 mol/L glycine. Cell lysates were prepared in lysis buffer [1% Triton X-100, 150 mmol/L NaCl, 3 mmol/L MgCl, 40 mmol/L HEPES (pH 7.5), 50 mmol/L NaF, EDTA-free protease inhibitor and phosphatase inhibitor (Roche)] and centrifuged at 14,000×g for 10 minutes. Supernatant (250 μg) was incubated with the indicated antibodies [α-FAK (AbCam), α-RICTOR (Santa Cruz Biotechnology)], for 4 hours at 4° C. with rotation and then with 50 μL of a 50% slurry of protein G-sepharose (Roche) for 1 hour Immunoprecipitates were washed and resolved by SDS-PAGE electrophoresis.
To identify an upstream regulator that might activate mTORC2 signaling during asymmetric division, an immunoprecipitation approach was used to identify proteins that physically interact with the mTORC2 complex during mitosis. […]
A general note: Immunoblotting shows a protein as a band on a membrane.

T1 sequence (Q8N122 whole entry): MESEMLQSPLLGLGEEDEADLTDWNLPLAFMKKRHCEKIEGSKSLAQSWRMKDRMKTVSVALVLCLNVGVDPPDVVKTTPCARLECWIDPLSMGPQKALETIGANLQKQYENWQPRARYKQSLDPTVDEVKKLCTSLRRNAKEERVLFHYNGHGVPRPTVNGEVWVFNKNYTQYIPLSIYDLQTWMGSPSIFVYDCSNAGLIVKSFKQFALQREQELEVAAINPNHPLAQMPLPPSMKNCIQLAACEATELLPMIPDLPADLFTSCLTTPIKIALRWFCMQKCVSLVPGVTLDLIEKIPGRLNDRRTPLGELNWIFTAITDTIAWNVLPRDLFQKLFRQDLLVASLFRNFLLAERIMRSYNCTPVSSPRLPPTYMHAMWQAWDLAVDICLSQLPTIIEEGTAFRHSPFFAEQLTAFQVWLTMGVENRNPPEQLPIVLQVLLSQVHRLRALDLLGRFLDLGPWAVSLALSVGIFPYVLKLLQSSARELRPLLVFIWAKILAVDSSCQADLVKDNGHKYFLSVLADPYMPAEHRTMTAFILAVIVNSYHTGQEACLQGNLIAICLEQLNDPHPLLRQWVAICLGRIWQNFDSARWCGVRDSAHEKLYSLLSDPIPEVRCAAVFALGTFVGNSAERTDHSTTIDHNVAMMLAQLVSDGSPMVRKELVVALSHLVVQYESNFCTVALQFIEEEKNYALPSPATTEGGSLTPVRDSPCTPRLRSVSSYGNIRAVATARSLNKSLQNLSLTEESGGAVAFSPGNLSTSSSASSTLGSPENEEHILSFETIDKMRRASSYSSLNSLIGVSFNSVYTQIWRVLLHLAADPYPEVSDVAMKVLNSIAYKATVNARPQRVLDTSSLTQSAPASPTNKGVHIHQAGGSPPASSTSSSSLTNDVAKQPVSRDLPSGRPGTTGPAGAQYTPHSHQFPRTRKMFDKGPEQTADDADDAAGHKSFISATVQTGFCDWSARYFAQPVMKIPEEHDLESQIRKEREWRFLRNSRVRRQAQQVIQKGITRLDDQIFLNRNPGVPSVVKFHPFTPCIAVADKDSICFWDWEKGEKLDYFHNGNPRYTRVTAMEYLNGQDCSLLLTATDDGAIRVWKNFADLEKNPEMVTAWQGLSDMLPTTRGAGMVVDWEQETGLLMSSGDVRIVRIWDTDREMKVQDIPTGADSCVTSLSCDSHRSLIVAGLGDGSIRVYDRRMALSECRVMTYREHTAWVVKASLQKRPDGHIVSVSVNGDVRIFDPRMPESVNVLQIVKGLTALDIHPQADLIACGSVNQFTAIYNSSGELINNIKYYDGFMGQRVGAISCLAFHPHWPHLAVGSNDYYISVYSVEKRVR

B1: focal adhesion kinase (FAK) (enzyme, human, UniProt Q05397 2-1052, looked up)
chain: AAAYLDPNLNHTPNSSTKTHLGTGMERSPGAMERVLKVFHYFESNSEPTTWASIIRHGDATDVRGIIQKIVDSHKVKHVACYGFRLSHLRSEEVHWLHVDMGVSSVREKYELAHPPEEWKYELRIRYLPKGFLNQFTEDKPTLNFFYQQVKSDYMLEIADQVDQEIALKLGCLEIRRSYWEMRGNALEKKSNYEVLEKDVGLKRFFPKSLLDSVKAKTLRKLIQQTFRQFANLNREESILKFFEILSPVYRFDKECFKCALGSSWIISVELAIGPEEGISYLTDKGCNPTHLADFTQVQTIQYSNSEDKDRKGMLQLKIAGAPEPLTVTAPSLTIAENMADLIDGYCRLVNGTSQSFIIRPQKEGERALPSIPKLANSEKQGMRTHAVSVSETDDYAEIIDEEDTYTMPSTRDYEIQRERIELGRCIGEGQFGDVHQGIYMSPENPALAVAIKTCKNCTSDSVREKFLQEALTMRQFDHPHIVKLIGVITENPVWIIMELCTLGELRSFLQVRKYSLDLASLILYAYQLSTALAYLESKRFVHRDIAARNVLVSSNDCVKLGDFGLSRYMEDSTYYKASKGKLPIKWMAPESINFRRFTSASDVWMFGVCMWEILMHGVKPFQGVKNNDVIGRIENGERLPMPPNCPPTLYSLMTKCWAYDPSRRPRFTELKAQLSTILEEEKAQQEERMRMESRRQATVSWDSGGSDEAPPKPSRPGYPSPRSSEGFYPSPQHMVQTNHYQVSGYPGSHGITAMAGSIYPGQASLLDQTDSWNHRPQEIAMWQPNVEDSTVLDLRGIGQVLPTHLMEERLIRQQQEMEEDQRWLEKEERFLKPDVRLSRGSIDREDGSLQGPIGNQHIYQPVGKPDPAAPPKKPPRPGAPGHLGSLASLSSPADSYNEGVKLQPQEISPPPTANLDRSNDKVYENVTGLVKAVIEMSSKIQPAPPEEYVPMVKEVGLALRTLLATVDETIPLLPASTHREIEMAQKLLNSDLGELINKMKLAQQYVMTSLQQEYKKQMLTAAHALAVDAKNLLDVIDQARLKMLGQTRPH
notes: Endogenous protein of the human cancer cell lines HCT116 and MCF7; lysates of formaldehyde-fixed cells were used for immunoprecipitation; also called PTK2
Turning to B1, the binding result is listed as “no binding”.
